From patent US11473073B2, “Aminopeptidases for protein hydrolyzates” (DUPONT NUTRITION BIOSCIENCES APS, priority 2015, dated 2022) come the findings set out here.

Common to all, as to assay type: biochemical
In one experiment the test system is soy. Briefly: Degree of hydrolysis in soy hydrolyses with and without 185 mM NaCl. Also noted: Degree of hydrolysis: unit not given here. Particulars: for Degree of hydrolysis: SOY, 50° C., 18 hr. The procedure: (§1) Sodium chloride is frequently applied in the food industry to reduce the microbial contamination risk in protein hydrolyses. Pre-hydrolysed 10% (w/w) soy (SUPRO® 760, DuPont, Brabrand, Denmark) and gluten (Sigma-Aldrich, Schnelldorf, Germany) was prepared by addition of 1% (w/wprotein) FOODPRO® Alkaline Protease (DuPont, Brabrand, Denmark) and 1% (w/wprotein) FOODPRO® PNL (DuPont, Brabrand, Denmark). The hydrolyses were performed at 50° C. at pH 7.0 (without pH control) for 18 hr (heat inactivation after 18 hr; 90° C.; 10 min). Subsequently, the hydrolyses were divided in sodium chloride containing (185 mM) and non-salt containing hydrolyses. 150 μL of each pre-hydrolysed protein suspension was combined with differently standardized Aspergillus clavatus PepN 2 as indicated in Table 3. The hydrolyses were conducted at 50° C. without pH control and terminated after 18 hr by addition of 20 μL of 2 M TCA. Prior to the determination of the DH (Nielsen, Petersen et al. 2001, infra), all samples were filtered 0.22 μm.

For experiment [1], the system named is whey protein isolate (WPI). Put plainly: Degree of hydrolysis of WPI with endopeptidases plus PepN. Particulars: for Degree of hydrolysis: 50° C., 18 hr. As for the experimental part: Enzyme activities of PepN 1 Lactobacillus helveticus ATCC® 12046, PepN 1 Aspergillus oryzae and from PepN 2 from Aspergillus clavatus (TRI035) were determined according to Stressler, Eisele et al. (2013, infra). PepN 1 from L. helveticus was expressed and purified as described by Stressler, Eisele et al. (2013, infra).
The PepN 1 and 2 aminopeptidases were standardized to the activity range of 2.5-200 nkat*mL^−1. For protein hydrolyses, 1% (w/wWPI) FOODPRO® Alkaline Protease (DuPont, Brabrand, Denmark) and 1% (w/wWPI) FOODPRO® PNL (DuPont, Brabrand, Denmark) were added to the whey protein isolate suspension (WPI; LACPRODAN® 9224, Arla Ingredients, Viby, Denmark) with an initial pH of 7.0. Following the endopeptidases addition, the WPI was mixed and 200 μL were transferred to each well of a 96-well microtiter plate. The hydrolysis was conducted at 50° C. without pH control and terminated after 18 hr by addition of 20 μL of 2 M TCA. Prior to the determination of the DH (Nielsen, Petersen et al., 2001, infra), all samples were filtered 0.22 μm.

Experiment [2] relates to gluten. Put plainly: Degree of hydrolysis in gluten hydrolyses with and without 185 mM NaCl. Particulars: for Degree of hydrolysis: Gluten, 50° C., 18 hr. Also noted: Degree of hydrolysis: unit not given here. The procedure: as §1
For experiment [3], the system named is gluten. Put plainly: Glutamic acid liberation in gluten hydrolyses (pH and temperature optimum). The procedure: The liberation of glutamic acid is an important quality parameter in vegetable protein hydrolyses such as soy or gluten hydrolyses. The liberated glutamic acid can be perceived as the so-called “umami-flavor”. In order to determine the effect of the initially applied pH in gluten hydrolyses in terms of glutamic acid and glutamine liberation, the initial pH of a gluten hydrolyses was adjusted just after the liquefaction of the gluten after 15-30 min with 1 M HCl. Gluten was treated with Glutaminase (Amano, Japan). In addition, gluten was treated with FoodPro Alkaline Protease, FoodPro PNL as well as PepN 2 (Neosartorya fischeri). After 20 hr, the hydrolysis was terminated employing ultrafiltration (10 kDa cut-off, Sartorius Stedium Biotech, Göttingen, Germany). The permeate was applied for the enzymatic glutamic acid analyses (enzymatic L-glutamic acid analysis kit, Roche, Mannheim, Germany).
In order to determine the effect of the applied temperature during the gluten hydrolyses in terms of glutamic acid and glutamine liberation, the initial pH was adjusted with 1 M HCl to pH 7.0 just after the liquefaction of the gluten suspension after 15-30 min. Gluten was combined with Glutaminase (Amano, Japan). In addition, gluten was combined FOODPRO® Alkaline Protease, FOODPRO® PNL as well as PepN 2 (Neosartorya fischeri). […]

Where [4] appears, read: 185 mM NaCl, protein concentration 0.2 mg/mL.
The mark [5] stands for this setting: 185 mM NaCl, protein concentration 0.3 mg/mL.
[6] abbreviates: 185 mM NaCl, protein concentration 0.4 mg/mL.
[7] abbreviates: 185 mM NaCl, protein concentration 0.5 mg/mL.
The mark [8] stands for this setting: reference (no salt), protein concentration 0.2 mg/mL.
Where [9] appears, read: reference (no salt), protein concentration 0.3 mg/mL.
Where [10] appears, read: reference (no salt), protein concentration 0.4 mg/mL.
Setting [11] is: reference (no salt), protein concentration 0.5 mg/mL.

B1: TRI035: fungal aminopeptidase type-2 (pepN_2), NCBI XP_001273779 from Aspergillus clavatus NRRL 1 (protein)
chain: MQTFGAFLVSFLAASGLAAANAPGGPGGHGRKLPVNPKTFPNEIRLKDLLHGSQKLEDFAYAYPERNRVFGGQAHLDTVNYLYRELKKTGYYDVYKQPQVHQWTRADQSLTLGGDSIQASTMTYSPSVNVTAPLSLVSKLGCAEGDYSADVKGKIALVSRGECSFAQKSVLSAKAGAVATIVYNNVDGSLAGTLGGATSELGPYSPIIGITLAAGQDLVARLQAAPTEVSLWIDSKVENRTTYNVIAQTKGGDPNNVVALGGHTDSVENGPGINDDGSGVISNLVVAKALTRYSVKNAVRFCFWTAEEFGLLGSNYYVDNLSPAELAKIRLYLNFDMIASPNYALMIYDGDGSAFNLTGPPGSAQIESLFENYYKSIKQGFVPTAFDGRSDYEGFILKGIPAGGVFTGAESLKTEEQARLFGGQAGVALDANYHAKGDNMTNLNHKAFLINSRATAFAVATYANNLSSIPPRNATVVKRESMKWTKREEPHTHGADTGCFASRVKE
modifications: Synthetic peptide with leader sequence
Regarding B1, the Degree of hydrolysis is listed as 10 with soy (setting [4]); 11 in the experiment with soy (setting [5]); 11 with soy (setting [6]); 12 in the experiment with soy (setting [7]); 11 in the experiment on soy (setting [8]); 12 in the experiment with soy (setting [9]). The Degree of hydrolysis is 12 in the experiment on soy (setting [10]); 12 in the experiment with soy (setting [11]); 15% in experiment [1] (PepN dosage 2.5 nkat/mL in stock solution); 17% in experiment [1] (PepN dosage 5 nkat/mL in stock solution); 17% in experiment [1] (PepN dosage 10 nkat/mL in stock solution); 20% in experiment [1] (PepN dosage 25 nkat/mL in stock solution). Also, the Degree of hydrolysis in experiment [1] (PepN dosage 50 nkat/mL in stock solution) worked out at 24%; in experiment [1] (PepN dosage 75 nkat/mL in stock solution), 26%; in experiment [1] (PepN dosage 100 nkat/mL in stock solution) it was 35%; in experiment [1] (PepN dosage 200 nkat/mL in stock solution), 36%; with gluten [2] (185 mM NaCl, protein concentration 0.1 mg/mL), 14; with gluten [2] (setting [4]), 15. For the same molecule, the Degree of hydrolysis stood at 15 in the experiment on gluten [2] (185 mM NaCl, protein concentration 0.25 mg/mL); 16 with gluten [2] (setting [5]); 17 in the experiment on gluten [2] (setting [6]); 18 in the experiment on gluten [2] (setting [7]); 14 in the experiment with gluten [2] (reference (no salt), protein concentration 0.1 mg/mL); 16 in the experiment on gluten [2] (setting [8]). The Degree of hydrolysis with gluten [2] (reference (no salt), protein concentration 0.25 mg/mL) is given as 17; in the experiment on gluten [2] (setting [9]) it was 16; in the experiment with gluten [2] (setting [10]), 17; in the experiment with gluten [2] (setting [11]), 18. For the same molecule, the “influence of 185 mM NaCl on the determined degree of hydrolysis” value in the experiment on soy (soy hydrolyses) and in the experiment with gluten [2] (gluten hydrolyses) was “no influence” in each case. Besides, the “higher DH than the PepN 1 aminopeptidases” value in experiment [1] (at the two highest dosages) is recorded as “at least 25%”.

B2: TRI031: fungal aminopeptidase type-2 (pepN_2), NCBI XP_001258675 from Neosartorya fischeri NRRL 181, expressed in Trichoderma reesei (protein)
chain: MQTFGAFLVSFLAASGLAAANGPGWDWKPPVHPKVLPQMIHLWDLMHGAQKLEDFAYAYPERNRVFGGPAHEDTVNYLYRELKKTGYYDVYKQPQVHQWTRADQALTVDGKSYVATTMTYSPSVNVTAPLAVVNNLGCVESDYPADLKGKIALVSRGECPFATKSVLSAKAGAAAALVYNNIEGSMAGTLGGPTSELGPYAPIAGISLADGQALIQMIQAGTVTANLWIDSKVENRTTYNVIAQTKGGDPNNVVALGGHTDSVEAGPGINDDGSGIISNLVVAKALTRFSVKNAVRFCFWTAEEFGLLGSSYYVNSLNATEKAKIRLYLNFDMIASPNYALMIYDGDGSAFNLTGPAGSAQIERLFEDYYKSIRKPFVPTEFNGRSDYEAFILNGIPAGGIFTGAEAIKTEEQAKLFGGQAGVALDANYHAKGDNMTNLNREAFLINSKATAFAVATYANSLDSIPSRNMSTVVKRSQLEQAKKSTPHTHTGGTGCYKDRVEQ
modifications: Synthetic peptide with leader sequence
notes: fungal aminopeptidase type-2 (pepN_2), NCBI XP_001258675 from Neosartorya fischeri NRRL 181, expressed in Trichoderma reesei
B2: the “temperature at which PepN 2 performed most efficient (glutamic acid liberation)” value in the experiment with gluten [3] (gluten hydrolysis 20 h, initial pH 7.0, range 40-60° C., FIG. 3) is 60 °C. Besides, the “pH range in which PepN 2 performed more efficient (glutamic acid liberation)” value in the experiment with gluten [3] (gluten hydrolysis 20 hr with Glutaminase, FoodPro Alkaline Protease, FoodPro PNL, compared to pH 6.0, FIG. 2) is on record as 7.0-9.0.
